Laboratory results taken from the supplement of paper PMC12042874.
± gives the uncertainty stated by the source.

Experiment: amyloid nucleation score (Sup35N fusion, yeast selection) (log enrichment); library NNK2; higher = more nucleation; inactive = no reads after selection
Outline: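 Using DiMSum, nucleation scores were taken as the log enrichment of output over input reads, centred on the mode score of non-aggregating sequences. The input and output reads came from Illumina sequencing of plasmid inserts, with sequences under 100 input reads excluded. The yeast were psi-negative, expressed Sup35N fused to peptides of 20 random codons, were induced with 100 μM copper sulfate for 24 hours, and were grown 7 days at 30°C on medium lacking adenine and uracil.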

Row | Substance | amyloid nucleation score
1 | GCRRISFKSHISGVEGTNGG | 1.2 ± 0.43
2 | PEGPERFVFATWPRMHMPSY | inactive
3 | IVQFYYVMQYRFRYCLDRMH | 1.01 ± 0.34
4 | TSSSYTSTFDRGLMNLRTCL | -0.039 ± 0.25
5 | YMCRYGFMDNFCAVHVSFVE | 5.645 ± 0.055
6 | LFEFSFITPYGV | -0.531 ± 0.44
7 | ACDVDAMFTKMYSIFFR | 0.479 ± 0.62
8 | VQPVLCIVSCNRLNRQRAEM | -0.498 ± 1.1
9 | AHAPGPNEA | 0.276 ± 0.8
10 | SEVLNVFA | -1.14 ± 0.34
11 | QSRQFLSVYFYLFFLFFSFL | inactive
12 | HCGFDQVLEGLTLR | 0.097 ± 0.42
13 | DNRNCPAHWWASFTMKPGSE | 0.14 ± 0.49
14 | FFTHTWLRRLKTLCVSFVPK | -0.516 ± 0.45
15 | FVIVFVRRSNTFLAPQKVWG | 1.6 ± 0.14
16 | NARFFNSFNSFM | 3 ± 0.076
17 | MDKCETEMYIMSAHVFRRLW | 6.229 ± 0.048
18 | ICSSPLRIISINKLSGTYNL | 2.25 ± 0.14
19 | SCSIKSSTVVEDPF | 0.049 ± 0.76
20 | LLRRGVDIWVEHFRE | -0.613 ± 0.64
21 | KDPLIRDVLDNANQRLVNSV | inactive
22 | GNLSNSQTIWFRSNTAISLN | 1.98 ± 0.14
23 | HSNPYRKLIQLTMTGITGTV | 0.033 ± 0.48
24 | WFIGS | inactive
25 | CPFESRIAST | 0.132 ± 0.26

Row | Substance | amyloid nucleation score
26 | STIQGIKNRSYRHSSANRVN | 0.333 ± 0.61
27 | LFRRGKILACIYA | 0.016 ± 1.1
28 | TNKYLVGSILYLFKHGWLGV | 0.067 ± 0.55
29 | GFYGLTVSSTEYKWSMIQIR | 1.88 ± 0.077
30 | DVHHRIIMMLLGGFWYACGY | -0.428 ± 0.27
31 | RIVGRSFYMQFGRVWDFLRS | -0.546 ± 0.61
32 | SIVLMCVLMYPPIDVSSWLS | 4.415 ± 0.042
33 | PRSVFCCLDGRHTPRKMPIY | -0.47 ± 0.74
34 | WSLSYYISVDEDYGSRGVTM | -1.6 ± 1
35 | DNSHWI | 0.903 ± 0.47
36 | CLSSSSVVALGNRLETWIYA | 2.73 ± 0.086
37 | LNDSLTIACSTNTANSWRNL | inactive
38 | KYWFDGYLGYF | -1.14 ± 0.29
39 | KRWIT | -0.65 ± 0.55
40 | DHSYRRYVVEGLFSVSQNGK | 0.21 ± 0.54
41 | YMKTN | -0.38 ± 0.32
42 | SAPYLIMLRLDSCACGDVF | 2.01 ± 0.083
43 | LSGMIGSSWAFVSLALIRYQ | -0.798 ± 0.64
44 | PYGFRVFTLWMLKRDSS | 0.92 ± 0.57
45 | CIDVRDTWNVPSVDYSMVLY | -0.363 ± 1.1
46 | HSLVS | -0.266 ± 1
47 | PQTLCINISFDYRYMNQVLD | 7.449 ± 0.074
48 | RTVGLSHIIICN | 0.089 ± 0.5
49 | LYLYGDYV | 7.65 ± 0.079
50 | HMYVGHGLNVFAYISMLGVY | inactive

Row | Substance | amyloid nucleation score
51 | MSSRTHLARRHPVMDVCCSR | 6.639 ± 0.036
52 | FSLEMTLFWPVFRLCPISSL | 0.606 ± 0.66
53 | CPWSQSRLAYYTCGYYTASS | 0.193 ± 0.5
54 | DVSLNRGVRPF | -0.123 ± 0.76
55 | YSEMRDSQAVVAYESRVVKP | 0.798 ± 0.46
56 | AMYFRVVLA | 1.25 ± 0.31
57 | VNREYLLAVTVILQNVKTEE | 8.609 ± 0.036
58 | LRVTGNVGLSFGAKGLARPD | 3.33 ± 0.12
59 | FYLYFIYGSVCSLSRFNPIR | 1.53 ± 0.1
60 | FFYALGYRISDAMEIRRVGS | 2.35 ± 0.059
61 | CFFLYIRHFAMYCA | 1.65 ± 0.17
62 | GTRGVVLISMSWRVDLHWKP | inactive
63 | NETLSTCCLYHFKG | 4.04 ± 0.046
64 | RDIRWIYEDTLISSGIWRSL | 2.62 ± 0.11
65 | WFIWNVENR | 7.15 ± 0.08
66 | TFEYCSLYVGCNQGNLVITT | 6.575 ± 0.041
67 | VHSLFVNIRMLCTDGFASTG | 4.479 ± 0.038
68 | ARVALRLIYDMDRVLWPDSY | 5 ± 0.067
69 | IVLQRVGCFKDAGGNRVWEM | 0.264 ± 0.45
70 | PLLFIMANFCLVVLHVSFYN | -0.639 ± 1
71 | LWLVSRRNACFA | -0.408 ± 1
72 | ASAEQRNLCIEFASDQLYVI | -0.478 ± 0.38
73 | WCRAWGDFIMVKSLGLKCIA | -0.1 ± 0.49
74 | SSSVDRTVHPLCYGFSLRRD | -0.168 ± 0.28
75 | GYVRRSIGYSLLSVVS | -0.121 ± 0.46

Row | Substance | amyloid nucleation score
76 | RLCWWLVWS | 0.166 ± 0.76
77 | TLYKFM | -0.476 ± 0.74
78 | RTDFMHTIFLPCRGHGMSWF | 0.91 ± 0.35
79 | PYSVTEHICGIWLVWCIVGS | -0.418 ± 1.1
80 | STFIMCDRTDPASIAIA | 0.6 ± 0.64
81 | NYDGCRWWW | inactive
82 | ISPIESSDRMGGCSLRAILP | -0.66 ± 0.35
83 | ECNTSVLSTWARDLVSPVLT | 4.3 ± 0.053
84 | FGFLPSVIWEASDIGSDCLE | 0.072 ± 1.1
85 | LTTPGQNLLILWTLSNMFMI | inactive
86 | MNKNYFSGLPGGSVCYSVEY | -0.732 ± 0.38
87 | TRRGF | -0.357 ± 0.3
88 | LSFFDLIMGVRGMLQSVCGL | -0.131 ± 0.56
89 | DCWNCIISGSSALCAHVQSV | inactive
90 | NWGNDSMRRPCCG | 2 ± 0.088
91 | GTLPYFKN | -0.641 ± 0.74
92 | DDWVSGEEFGRSRNLNHFPD | -1.56 ± 0.48
93 | KTIVSYV | inactive
94 | TAKDAFMFQGLASLS | inactive
95 | GDKCGFCKNAGPGVKVS | -0.807 ± 0.79
96 | VYLSSLDSRMRLSTCFRE | -0.19 ± 0.35
97 | HCLGVFARFWIWVGPDGLVI | -1.2 ± 0.78
98 | LLLCGNSRGQDEASSIVFTM | 0.726 ± 0.66
99 | VWLDIYSQLEDENVYSSYLD | 2.44 ± 0.086
100 | RDREIVQSLLHVLSQASLFV | -0.456 ± 0.35

Row | Substance | amyloid nucleation score
101 | MVDKNNAKINHSR | inactive
102 | GIGSQMWFT | 3.41 ± 0.053
103 | EYSPCPSCT | 3.966 ± 0.037
104 | YVLQYTVKSDVWGTKAIRRP | 0.007 ± 0.79
105 | LVAIDSAFCTLGMPSADPVS | -0.097 ± 0.25
106 | KHGSMVICKPAIYTVLT | -0.021 ± 0.63
107 | RSQGLWMHAGPSFSVGYPFG | 3.9 ± 0.085
108 | STLTFIVSSSDEGWSHYREA | 3.79 ± 0.07
109 | VVSGTLKKMGVFGTSAIISE | 0.494 ± 0.8
110 | QWMVLQSDRGAEMIARA | 1.29 ± 0.2
111 | SHCPVRYMVGIS | -1.02 ± 0.78
112 | LIEFAFVQFCNIVIEP | 7.102 ± 0.031
113 | VRWTRILVLIMFYAMSSTGT | 2.65 ± 0.073
114 | FMKSNWIGTT | -0.909 ± 0.39
115 | CGLLGVPFTKLTMLISRRMT | 0.286 ± 0.61
116 | RSVPYSLCSMQLCTFHFEHS | 8.384 ± 0.028
117 | LIVSKWVHLWGYNALDNKEK | -1.65 ± 0.62
118 | STWPCNQPSYVSV | 0.204 ± 0.28
119 | WCIFL | 4.87 ± 0.087
120 | RSGVL | 4.24 ± 0.066
121 | ICGCKRSTVLWVSCFGV | 3.18 ± 0.12
122 | HCLIMGDNDGTLRTLGGR | -0.104 ± 0.65
123 | SWVTSYERLRLPLNCMSNDQ | -0.452 ± 0.42
124 | SNFLVYS | -0.636 ± 0.61
125 | LVNNGRVLSCYICV | 9.171 ± 0.056

Row | Substance | amyloid nucleation score
126 | STMRSWAAC | 4.25 ± 0.091
127 | FCMNTQH | 5.288 ± 0.042
128 | SACVLCFYQIFFYRVDCTGG | 6.414 ± 0.052
129 | LSKYLMQYNTCRLESKS | -0.336 ± 0.16
130 | IICNLKISSMQDKGVMQAVF | -0.871 ± 0.28
131 | CLYCVMASQWGCFGLVESVT | 1.73 ± 0.47
132 | RRSYFFLVTFTLDVRDMVCF | 1.77 ± 0.18
133 | SRIEHMACLRRP | 0.496 ± 0.66
134 | WECYLFFCDIVGVGVHWRSS | -0.824 ± 0.42
135 | TRMNSVYKVEIRRLVKMVSW | 0.242 ± 0.21
136 | FKGSDHCSKCRQVGEFVFST | -0.707 ± 1.1
137 | YMSLNKTAVTCVCHM | -0.425 ± 0.5
138 | MCYCLYNVGPCGDGH | 1.23 ± 0.28
139 | RTLWATNVRLKNLHVFIMVM | 0.147 ± 0.8
140 | YRFRVLCQVCNHGLRYKFFT | 0.372 ± 0.37
141 | DNFYCHHVDLFSWMIRADLA | -0.847 ± 0.64
142 | RLTSGIW | -0.814 ± 0.76
143 | DTRFEVNAFTIGNRYATNGS | -0.869 ± 0.41
144 | GEYGCHHVCLVQGLFGI | -0.164 ± 0.42
145 | AAFLNWVVCEIENEEGMSWL | inactive
146 | NSLVAVSLSAWWKPGDGSFS | 6.29 ± 0.085
147 | LGLCLHLISSFRHRYAVLSR | -0.19 ± 0.3
148 | FAPRSKPLRSLFEGLLF | 0.495 ± 0.57
149 | RTPFEDKVSIGDDSRSRADL | 0.414 ± 0.41
150 | NDGYFVFDALFFHR | -2.34 ± 0.75

Row | Substance | amyloid nucleation score
151 | SCLLVEQLP | 0.864 ± 0.26
152 | MIVMLESLRRTTSQP | 1.69 ± 0.21
153 | LRKNSLTCSSKKPEKAVTFC | -1.42 ± 1
154 | VFFNYSNCLGLA | inactive
155 | AELLYMFWACNFSWSMPL | -0.986 ± 0.76
156 | TPSDGCQHMASVVISI | 0.683 ± 0.8
157 | CVMHVRHHYGDI | inactive
158 | SCCFSMGGPVNVVQSSRMVR | -0.781 ± 0.55
159 | MIHYRWTHYNTRIGGYRYWE | 3.54 ± 0.05
160 | STNSDFLYQKNLPMVSSGNI | -0.408 ± 0.79
161 | IRCVGRVVFCCNFS | 9.965 ± 0.078
162 | CRFKVQQMTMENLAQMLVKG | 1.15 ± 0.68
163 | HYVYFGYECAFGGG | -0.365 ± 0.76
164 | KRIIFALL | -0.337 ± 0.48
165 | AFSVFSWSFQWQTSCWQICE | 5.022 ± 0.038
166 | SMWWY | -0.505 ± 1.1
167 | SGLCSCTVACVGFVHFDARV | 5.38 ± 0.084
168 | ALECHIRLKWRVSVGPGVLV | 1.17 ± 0.28
169 | GYDIISQKLGIQSYQKCTFI | -1.86 ± 0.62
170 | VCTNFWELMVWAQQLLFCKL | inactive
171 | LLLPLFII | inactive
172 | FRHCTFRLFHAHK | -0.378 ± 1
